{"source": "patent US6977154", "about": "“Nucleic acid binding proteins” (Gendaq Limited)", "experiment_in_all_cases": "phage ELISA, apparent Kd; PBS, 50 uM ZnCl2, 20 C", "settings_in_all_cases": "protein: virion; tags: phage fd pIII fusion (Fd-Tet-SN), Zif268 framework; label: 5' biotin", "key": {"[1]": {"molecular_target": "zfHAE(M)", "protocol": "(§1) Binding sites are synthesised as described above, including biotinylated sites where 5-meC (M) is replaced by a C or T (with appropriate bases in the complementary strand). Two-fold dilutions of DNA are added to separate wells of a streptavidin-coated microtitre plate (Boehringer Mannheim) in 50 µl PBS containing 50 µM ZnCl_2 (PBS/Zn). Phage solution (bacterial culture supernatant diluted 1:10 in PBS/Zn containing 2% (w/v) fat-free dried milk (Marvel), 1% (v/v) Tween and 20 µg/ml sonicated salmon sperm DNA) are applied to each well (50 µl/well). Binding is allowed to proceed for one hour at 20° C. Unbound phage are removed by washing 6 times with PBS/Zn containing 1% (v/v) Tween, then 3 times with PBS/Zn. Bound phage are detected by ELISA using horseradish peroxidase-conjugated anti-M13 IgG (Pharmacia Biotech) and the colourimetric signal quantitated using SOFTMAX 2.32 (Molecular Devices).\n(§2) Zinc finger phage binding for each of the above clones is titrated against different amounts of methylated and unmethylated DNA oligos to derive values of the apparent dissociation constants (K_ds) for either DNA binding site (see FIGS. 4 and 5). The apparent Kd of each clone for the optimally bound DNA site(s) is in the nanomolar range, similar to that of wild-type Zif268 DNA-binding domain for its preferred target site using this assay. Clones zfHAE(M) (Table 1 F1: SEQ ID NO.:20; F2: SEQ ID NO.:25; F3: SEQ ID NO.:30) and zfHHA(M) (Table 1 F1: SEQ ID NO.:21; F2: SEQ ID NO.:26; F3: SEQ ID NO.:31) preferentially bind their respective DNA target sites when 5-meC is incorporated into the correct nucleotide positions, and discriminated against the unmethylated DNA sites by factors of approximately 20-fold and 5-fold, respectively."}, "[2]": {"molecular_target": "zfHAE(Y)", "protocol": "as §1, §2"}, "[3]": {"molecular_target": "zfHHA(Y)", "protocol": "as §1, §2"}, "[4]": {"molecular_target": "zfHHA(M)", "protocol": "as §1, §2"}, "[5]": {"molecular_target": "zfHAE(M)", "protocol": "as §1", "remark": "listed apart in the source"}}}
{"binder": "HAE(M) G-GGMC-GGCG (dsDNA, 5mC at M (G-GGMC-GGCG), both strands [10 (5mC)]) DNA 1: TATAGTGGGCCGGCGTGTCACAGTCAGTCCACACACGTC DNA 2: GACGTGTGTGGACTGACTGTGACACGCCGGCCCACTATA", "values": [{"measurement": "Kd", "setting": "[1]", "value": 2, "unit": "nM"}, {"measurement": "Kd", "setting": "[2]", "value": 6.3, "unit": "nM"}]}
{"binder": "HHA(M) G-GMGC-GGCG (dsDNA, 5mC at M (G-GMGC-GGCG), both strands [5mC at 9 (top strand); bottom-strand 5mC opposite G10]) DNA 1: TATAGTGGCGCGGCGTGTCACAGTCAGTCCACACACGTC DNA 2: GACGTGTGTGGACTGACTGTGACACGCCGCGCCACTATA", "values": [{"measurement": "Kd", "setting": "[3]", "value": 14, "unit": "nM"}, {"measurement": "Kd", "setting": "[4]", "value": 14, "unit": "nM"}]}
{"binder": "HAE(T) G-GGTC-GGCG (dsDNA) DNA 1: TATAGTGGGTCGGCGTGTCACAGTCAGTCCACACACGTC DNA 2: GACGTGTGTGGACTGACTGTGACACGCCGACCCACTATA", "values": [{"measurement": "Kd", "setting": "[5]", "value": 27, "unit": "nM"}]}
